Target: T1, purified Flag-PREX2 protein (UniProt Q70Z35 1-1606)
T1 construct: PREX2, full length (183 kD); it may be the same construct; also called purified PREX2 protein; purified full-length PREX2; source: recombinant, purified (as described in Supplementary materials and methods)
Assay: pull-down; 25 µL AHCYL1-binding glutathione magnetic beads with 250 ng purified Flag-PREX2, on ice 1 h; washed with 50 mM Tris-HCl pH 7.4, 300 mM NaCl, 0.5% NP40; detected by Flag antibody
Settings: both partners purified

T1 sequence (Q70Z35 whole entry): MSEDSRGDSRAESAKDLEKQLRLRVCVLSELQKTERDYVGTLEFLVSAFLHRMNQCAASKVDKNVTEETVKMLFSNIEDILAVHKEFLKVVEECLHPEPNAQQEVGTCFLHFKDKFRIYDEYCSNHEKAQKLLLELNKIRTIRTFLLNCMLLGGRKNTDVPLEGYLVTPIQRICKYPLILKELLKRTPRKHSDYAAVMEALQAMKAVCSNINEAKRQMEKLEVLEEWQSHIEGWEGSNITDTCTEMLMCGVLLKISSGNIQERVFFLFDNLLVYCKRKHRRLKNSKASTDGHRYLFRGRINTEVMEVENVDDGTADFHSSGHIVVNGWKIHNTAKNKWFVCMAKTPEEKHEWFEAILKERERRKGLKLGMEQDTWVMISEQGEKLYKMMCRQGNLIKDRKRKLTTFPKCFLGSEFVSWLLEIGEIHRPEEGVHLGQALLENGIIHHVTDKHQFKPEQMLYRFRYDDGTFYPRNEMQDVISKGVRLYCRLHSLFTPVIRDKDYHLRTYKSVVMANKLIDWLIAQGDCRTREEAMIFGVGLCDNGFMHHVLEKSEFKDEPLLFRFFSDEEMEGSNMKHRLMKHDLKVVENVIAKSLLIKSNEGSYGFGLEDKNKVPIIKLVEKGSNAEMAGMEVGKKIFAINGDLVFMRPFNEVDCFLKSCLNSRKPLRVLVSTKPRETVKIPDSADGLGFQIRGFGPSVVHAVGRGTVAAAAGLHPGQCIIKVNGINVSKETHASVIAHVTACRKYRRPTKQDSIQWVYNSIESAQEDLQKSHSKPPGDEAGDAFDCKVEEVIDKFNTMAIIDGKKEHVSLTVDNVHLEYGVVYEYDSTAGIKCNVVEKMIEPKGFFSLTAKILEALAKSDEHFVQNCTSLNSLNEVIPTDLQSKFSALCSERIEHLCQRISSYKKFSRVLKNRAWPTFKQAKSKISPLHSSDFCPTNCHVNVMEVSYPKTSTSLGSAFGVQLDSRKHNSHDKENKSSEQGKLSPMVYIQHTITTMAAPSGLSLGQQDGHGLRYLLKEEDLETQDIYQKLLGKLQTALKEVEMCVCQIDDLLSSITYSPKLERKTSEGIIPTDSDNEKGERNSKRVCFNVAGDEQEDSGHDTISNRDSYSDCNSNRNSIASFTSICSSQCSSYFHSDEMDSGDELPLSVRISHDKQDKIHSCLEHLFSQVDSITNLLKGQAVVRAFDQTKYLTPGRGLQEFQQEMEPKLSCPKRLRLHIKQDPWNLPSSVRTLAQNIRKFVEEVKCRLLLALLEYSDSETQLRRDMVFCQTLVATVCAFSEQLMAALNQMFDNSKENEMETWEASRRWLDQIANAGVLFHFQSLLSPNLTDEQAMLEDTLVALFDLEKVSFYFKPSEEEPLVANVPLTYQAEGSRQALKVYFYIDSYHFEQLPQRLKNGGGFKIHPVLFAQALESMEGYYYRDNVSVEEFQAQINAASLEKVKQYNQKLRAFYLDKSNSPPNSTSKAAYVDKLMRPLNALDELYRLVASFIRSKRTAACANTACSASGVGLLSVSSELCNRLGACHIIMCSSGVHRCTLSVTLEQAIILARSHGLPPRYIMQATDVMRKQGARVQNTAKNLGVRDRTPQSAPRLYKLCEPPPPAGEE

B1: GST-AHCYL1 recombinant protein (natural protein, UniProt O43865 1-530, looked up)
chain: MSMPDAMPLPGVGEELKQAKEIEDAEKYSFMATVTKAPKKQIQFADDMQEFTKFPTKTGRRSLSRSISQSSTDSYSSAASYTDSSDDEVSPREKQQTNSKGSSNFCVKNIKQAEFGRREIEIAEQDMSALISLRKRAQGEKPLAGAKIVGCTHITAQTAVLIETLCALGAQCRWSACNIYSTQNEVAAALAEAGVAVFAWKGESEDDFWWCIDRCVNMDGWQANMILDDGGDLTHWVYKKYPNVFKKIRGIVEESVTGVHRLYQLSKAGKLCVPAMNVNDSVTKQKFDNLYCCRESILDGLKRTTDVMFGGKQVVVCGYGEVGKGCCAALKALGAIVYITEIDPICALQACMDGFRVVKLNEVIRQVDVVITCTGNKNVVTREHLDRMKNSCIVCNMGHSNTEIDVTSLRTPELTWERVRSQVDHVIWPDGKRVVLLAEGRLLNLSCSTVPTFVLSITATTQALALIELYNAPEGRYKQDVYLLPKKMDEYVASLHLPSFDAHLTELTDDQAKYLGLNKNGPFKPNYYRY
notes: AHCYL1 (IRBIT); Construct details are in the supplementary materials and methods; also called AHCYL1 conjugated-GST beads; source: recombinant, purified (as described in Supplementary materials and methods)
  binding result: binds
